The subject of data set [1] is CCCCN1C(=O)c2cccc3c(NC(=O)[C@@H]4CCCN4C(=O)CN)ccc(c23)C1=O. The data set can be described thus: purified protein. The following applies: Gly-Pro group cleaved by DPP-IV to release BAN.
In data set [2] the test system is Cc1cc(=O)oc2cc(NC(=O)[C@@H]3CCCN3C(=O)CN)ccc12. The data set can be described thus: purified protein.

In general, Km refers to the substrate concentration at which the rate is half of its maximum. Consider “DPP-IV (dipeptidyl peptidase IV) (Homo sapiens)”, for which the Km in data set [1] came out at 42.93 µM; in data set [2] it was 237.80 µM.

The record behind these values is publication PMC7127234.
